Reference: IntAct's records for PubMed 34927784

B1: Endosomal transmembrane epsin interactor 1 (Homo sapiens), Q15884 (parent)
chain: MILLVNLFVLLSVVCVLLNLAGFILGCQGAQFVSSVPRCDLVDLGEGKICFCCEEFQPAKCTDKENALKLFPVQPCSAVHLLLKKVLFALCALNALTTTVCLVAAALRYLQIFATRRSCIDESQISAEEAEDHGRIPDPDDFVPPVPPPSYFATFYSCTPRMNRRMVGPDVIPLPHIYGARIKGVEVFCPLDPPPPYEAVVSQMDQEQGSSFQMSEGSEAAVIPLDLGCTQVTQDGDIPNIPAEENASTSTPSSTLVRPIRSRRALPPLRTRSKSDPVLHPSEERAAPVLSCEAATQTERRLDLAAVTLRRGLRSRASRCRPRSLIDYKSYMDTKLLVARFLEQSSCTMTPDIHELVENIKSVLKSDEEHMEEAITSASFLEQIMAPLQPSTSRAHKLPSRRQPGLLHLQSCGDLHTFTPAGRPRAERRPRRVEAERPHSLIGVIRETVL

How the values were obtained:
ITCH, Q96J02-2 [1] = variants of: B1; settings: with ITCH
epn1_human EPN1, Q9Y6I3 = variants of: B1; settings: with epn1_human EPN1, Q9Y6I3
ITCH, Q96J02-2 [2] = variants of: B1; settings: with ITCH; remark: listed apart in the source
ITCH, Q96J02-2 [3] = variants of: B1; settings: with ITCH; remark: listed apart in the source

Sequence of ITCH, Q96J02-2 (Q96J02 other isoform, or with tags, fused parts or gaps): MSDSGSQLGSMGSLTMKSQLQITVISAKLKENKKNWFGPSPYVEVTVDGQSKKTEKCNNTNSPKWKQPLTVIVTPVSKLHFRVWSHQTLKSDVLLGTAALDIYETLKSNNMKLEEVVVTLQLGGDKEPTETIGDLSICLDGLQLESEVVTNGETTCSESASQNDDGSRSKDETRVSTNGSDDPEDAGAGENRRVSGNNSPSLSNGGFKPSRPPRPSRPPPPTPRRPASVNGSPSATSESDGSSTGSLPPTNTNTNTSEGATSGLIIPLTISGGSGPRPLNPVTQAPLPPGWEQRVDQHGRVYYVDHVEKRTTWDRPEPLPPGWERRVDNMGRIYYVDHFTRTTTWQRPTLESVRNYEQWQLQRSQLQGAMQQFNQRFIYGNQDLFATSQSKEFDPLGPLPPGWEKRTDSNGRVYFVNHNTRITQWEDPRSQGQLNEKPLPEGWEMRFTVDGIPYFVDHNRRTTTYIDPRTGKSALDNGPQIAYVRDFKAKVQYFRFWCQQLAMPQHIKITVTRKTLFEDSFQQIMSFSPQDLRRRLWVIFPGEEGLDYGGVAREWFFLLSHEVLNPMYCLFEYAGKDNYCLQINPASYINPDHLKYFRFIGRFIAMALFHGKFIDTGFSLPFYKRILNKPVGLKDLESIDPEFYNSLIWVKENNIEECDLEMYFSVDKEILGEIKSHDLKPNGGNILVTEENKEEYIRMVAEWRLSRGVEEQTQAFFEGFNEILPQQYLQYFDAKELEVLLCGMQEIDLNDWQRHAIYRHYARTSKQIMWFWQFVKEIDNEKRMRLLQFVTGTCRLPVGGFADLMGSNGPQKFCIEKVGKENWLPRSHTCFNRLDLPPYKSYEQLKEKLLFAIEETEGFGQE
Sequence of epn1_human EPN1, Q9Y6I3 (Q9Y6I3 whole entry): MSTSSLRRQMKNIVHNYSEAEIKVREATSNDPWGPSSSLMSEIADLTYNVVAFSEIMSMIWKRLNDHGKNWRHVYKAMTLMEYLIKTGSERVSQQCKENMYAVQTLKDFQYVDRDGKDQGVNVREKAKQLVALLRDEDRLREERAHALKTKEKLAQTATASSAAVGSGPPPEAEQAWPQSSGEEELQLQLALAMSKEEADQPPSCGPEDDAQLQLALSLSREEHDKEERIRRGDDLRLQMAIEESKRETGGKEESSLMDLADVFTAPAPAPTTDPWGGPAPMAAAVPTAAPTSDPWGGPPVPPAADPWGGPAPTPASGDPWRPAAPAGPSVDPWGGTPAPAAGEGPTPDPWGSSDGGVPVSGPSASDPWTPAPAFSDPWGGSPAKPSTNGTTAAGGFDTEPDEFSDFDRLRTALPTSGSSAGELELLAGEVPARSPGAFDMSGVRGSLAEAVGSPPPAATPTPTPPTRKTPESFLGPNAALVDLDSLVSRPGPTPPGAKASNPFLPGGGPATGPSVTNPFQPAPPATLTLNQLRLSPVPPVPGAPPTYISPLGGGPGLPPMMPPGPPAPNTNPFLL

MILLVNLFVLLSVVCVLLNLAGFILGCQGAQFVSSVPRCDLVDLGEGKICFCCEEFQPAKCTDKENALKLFPVQPCSAVHLLLKKVLFALCALNALTTTVCLVAAALRYLQIFATRRSCIDESQISAEEAEDHGRIPDPDDFVPPVPPPSAFATFYSCTPRMNRRMVGPDVIPLPHIYGARIKGVEVFCPLDPPPPYEAVVSQMDQEQGSSFQMSEGSEAAVIPLDLGCTQVTQDGDIPNIPAEENASTSTPSSTLVRPIRSRRALPPLRTRSKSDPVLHPSEERAAPVLSCEAATQTERRLDLAAVTLRRGLRSRASRCRPRSLIDYKSYMDTKLLVARFLEQSSCTMTPDIHELVENIKSVLKSDEEHMEEAITSASFLEQIMAPLQPSTSRAHKLPSRRQPGLLHLQSCGDLHTFTPAGRPRAERRPRRVEAERPHSLIGVIRETVL [Y151A]
effect of a mutation on the interaction (ITCH, Q96J02-2 [1]): with no effect

MILLVNLFVLLSVVCVLLNLAGFILGCQGAQFVSSVPRCDLVDLGEGKICFCCEEFQPAKCTDKENALKLFPVQPCSAVHLLLKKVLFALCALNALTTTVCLVAAALRYLQIFATRRSCIDESQISAEEAEDHGRIPDPDDFVPPVPPPSYFATFYSCTPRMNRRMVGPDVIPLPHIYGARIKGVEVFCPLDPPPPAEAVVSQMDQEQGSSFQMSEGSEAAVIPLDLGCTQVTQDGDIPNIPAEENASTSTPSSTLVRPIRSRRALPPLRTRSKSDPVLHPSEERAAPVLSCEAATQTERRLDLAAVTLRRGLRSRASRCRPRSLIDYKSYMDTKLLVARFLEQSSCTMTPDIHELVENIKSVLKSDEEHMEEAITSASFLEQIMAPLQPSTSRAHKLPSRRQPGLLHLQSCGDLHTFTPAGRPRAERRPRRVEAERPHSLIGVIRETVL [Y197A]
effect of a mutation on the interaction (ITCH, Q96J02-2 [1]): decreasing interaction strength

MILLVNLFVLLSVVCVLLNLAGFILGCQGAQFVSSVPRCDLVDLGEGKICFCCEEFQPAKCTDKENALKLFPVQPCSAVHLLLKKVLFALCALNALTTTVCLVAAALRYLQIFATRRSCIDESQISAEEAEDHGRIPDPDDFVPPVPPPSAFATFYSCTPRMNRRMVGPDVIPLPHIYGARIKGVEVFCPLDPPPPAEAVVSQMDQEQGSSFQMSEGSEAAVIPLDLGCTQVTQDGDIPNIPAEENASTSTPSSTLVRPIRSRRALPPLRTRSKSDPVLHPSEERAAPVLSCEAATQTERRLDLAAVTLRRGLRSRASRCRPRSLIDYKSYMDTKLLVARFLEQSSCTMTPDIHELVENIKSVLKSDEEHMEEAITSASFLEQIMAPLQPSTSRAHKLPSRRQPGLLHLQSCGDLHTFTPAGRPRAERRPRRVEAERPHSLIGVIRETVL [Y151A;Y197A]
effect of a mutation on the interaction (ITCH, Q96J02-2 [1]): decreasing interaction strength | effect of a mutation on the interaction (epn1_human EPN1, Q9Y6I3): with no effect | effect of a mutation on the interaction (ITCH, Q96J02-2 [2]): with no effect | effect of a mutation on the interaction (ITCH, Q96J02-2 [3]): disrupting interaction strength
